Conditions: Mus musculus, pH 7.5, Thermal, Potassium phosphate 50 mM, KCl 50 mM, reversible: yes, structure 1MBG

Transcriptional activator Myb V103I, P06876, sequence (P06876 whole entry V103I): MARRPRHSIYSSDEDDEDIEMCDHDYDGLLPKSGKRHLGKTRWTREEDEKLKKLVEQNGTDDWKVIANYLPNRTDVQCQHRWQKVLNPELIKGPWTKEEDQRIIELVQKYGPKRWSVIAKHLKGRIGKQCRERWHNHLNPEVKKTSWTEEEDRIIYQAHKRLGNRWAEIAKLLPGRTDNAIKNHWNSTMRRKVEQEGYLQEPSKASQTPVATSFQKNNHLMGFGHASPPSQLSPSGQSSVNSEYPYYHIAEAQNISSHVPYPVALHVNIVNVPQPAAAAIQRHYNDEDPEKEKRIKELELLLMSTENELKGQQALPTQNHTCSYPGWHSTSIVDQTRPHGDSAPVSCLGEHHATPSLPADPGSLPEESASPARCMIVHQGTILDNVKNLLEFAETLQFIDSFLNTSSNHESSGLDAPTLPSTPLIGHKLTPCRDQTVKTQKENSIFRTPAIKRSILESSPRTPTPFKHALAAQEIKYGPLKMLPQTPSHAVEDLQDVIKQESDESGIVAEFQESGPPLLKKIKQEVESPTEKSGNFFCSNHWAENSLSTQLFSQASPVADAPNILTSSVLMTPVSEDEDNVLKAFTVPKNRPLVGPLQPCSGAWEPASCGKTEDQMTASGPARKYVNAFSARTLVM
Transcriptional activator Myb V103L, P06876, sequence (P06876 whole entry V103L): as the sequence (P06876 whole entry V103I) above, with I103L counted along it
Transcriptional activator Myb V103A, P06876, sequence (P06876 whole entry V103A): as the sequence (P06876 whole entry V103I) above, with I103A counted along it

Substance | Tm (CD) [°C] | change of melting temperature, mutant - wild type (higher = more stable) (CD) [°C] | Tm (DSC) [°C] | unfolding enthalpy (calorimetric) (DSC) [kcal/mol]
Transcriptional activator Myb V103A, P06876 | 2.8 | -36.8 |  | 
Transcriptional activator Myb V103I, P06876 | 46.6 | 7 | 47.5 | 32.1
Transcriptional activator Myb V103L, P06876 | 62 | 22.4 | 62 | 41.8

From FireProtDB (doi:10.1006/jmbi.1999.3099)
